The text below walks through data of paper PMC6134028, “Mutant FUS causes DNA ligation defects to inhibit oxidative damage repair in Amyotrophic Lateral Sclerosis” (Nature Communications, 2018).

One test addresses Flag-FUS-R521H (human) (UniProt P35637). In words: proximity ligation; PLA of Flag vs XRCC1, LigIII or PARP-1 in GO-treated SH-SY5Y cells expressing Flag-tagged WT or R521H FUS.
Test [1] has as its target XRCC1/LigIII complex, purified from insect cells (UniProt P18887 1-633; P49916 88-1009). In words: cell-based or functional assay.
For test [2], the target named is T1, PARP-1, His-tag protein, purified (human, UniProt P09874 1-1014).
T1 construct: human PARP1, recombinant; also called human PARP1 purified protein; source: expressed as His-tag protein, purified (Ni-agarose column, cation exchange)
T1 sequence (P09874 whole entry): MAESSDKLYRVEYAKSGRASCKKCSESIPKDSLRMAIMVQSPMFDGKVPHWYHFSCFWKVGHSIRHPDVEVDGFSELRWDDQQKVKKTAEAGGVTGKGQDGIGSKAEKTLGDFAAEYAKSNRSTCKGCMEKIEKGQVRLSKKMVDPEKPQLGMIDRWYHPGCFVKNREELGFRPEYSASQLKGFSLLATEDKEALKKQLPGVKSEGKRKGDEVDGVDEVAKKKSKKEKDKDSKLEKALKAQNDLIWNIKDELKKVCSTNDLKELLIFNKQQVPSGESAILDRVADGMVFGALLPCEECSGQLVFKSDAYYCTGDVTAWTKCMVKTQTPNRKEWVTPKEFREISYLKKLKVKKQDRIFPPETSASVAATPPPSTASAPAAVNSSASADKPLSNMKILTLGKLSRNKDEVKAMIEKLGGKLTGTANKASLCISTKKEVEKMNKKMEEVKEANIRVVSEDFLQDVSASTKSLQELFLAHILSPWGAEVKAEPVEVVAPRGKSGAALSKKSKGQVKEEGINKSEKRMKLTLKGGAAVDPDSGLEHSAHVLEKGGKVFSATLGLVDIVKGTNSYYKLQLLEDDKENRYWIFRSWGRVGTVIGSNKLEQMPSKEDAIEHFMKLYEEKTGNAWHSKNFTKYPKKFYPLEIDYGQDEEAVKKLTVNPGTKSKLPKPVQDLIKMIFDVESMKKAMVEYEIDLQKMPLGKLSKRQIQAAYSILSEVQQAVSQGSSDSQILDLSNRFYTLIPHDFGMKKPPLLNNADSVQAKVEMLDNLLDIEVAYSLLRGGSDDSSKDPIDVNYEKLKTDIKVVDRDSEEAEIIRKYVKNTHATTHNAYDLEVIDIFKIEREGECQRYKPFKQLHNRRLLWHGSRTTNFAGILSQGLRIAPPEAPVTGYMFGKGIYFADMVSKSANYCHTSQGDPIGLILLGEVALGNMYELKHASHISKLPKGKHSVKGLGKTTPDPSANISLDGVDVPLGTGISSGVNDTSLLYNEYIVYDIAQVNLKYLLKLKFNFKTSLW
In words: pull-down; GST-FUS with the partner at 4 C overnight on glutathione affinity gel, washed three times with TEN buffer (20 mM Tris-HCl pH 7.4, 0.1 mM EDTA, 100 mM NaCl), immunoblot; for XRCC1 also in the presence of PARP-1 and NAD+ (PARylation enhanced the interaction). The note with it: both partners purified. For orientation: Immunoblotting shows a protein as a band on a membrane.

Where only a bound is given, the exact number is not on record here.

Sequence of XRCC1/LigIII complex, purified from insect cells (P18887 whole entry, chain 1 of 2): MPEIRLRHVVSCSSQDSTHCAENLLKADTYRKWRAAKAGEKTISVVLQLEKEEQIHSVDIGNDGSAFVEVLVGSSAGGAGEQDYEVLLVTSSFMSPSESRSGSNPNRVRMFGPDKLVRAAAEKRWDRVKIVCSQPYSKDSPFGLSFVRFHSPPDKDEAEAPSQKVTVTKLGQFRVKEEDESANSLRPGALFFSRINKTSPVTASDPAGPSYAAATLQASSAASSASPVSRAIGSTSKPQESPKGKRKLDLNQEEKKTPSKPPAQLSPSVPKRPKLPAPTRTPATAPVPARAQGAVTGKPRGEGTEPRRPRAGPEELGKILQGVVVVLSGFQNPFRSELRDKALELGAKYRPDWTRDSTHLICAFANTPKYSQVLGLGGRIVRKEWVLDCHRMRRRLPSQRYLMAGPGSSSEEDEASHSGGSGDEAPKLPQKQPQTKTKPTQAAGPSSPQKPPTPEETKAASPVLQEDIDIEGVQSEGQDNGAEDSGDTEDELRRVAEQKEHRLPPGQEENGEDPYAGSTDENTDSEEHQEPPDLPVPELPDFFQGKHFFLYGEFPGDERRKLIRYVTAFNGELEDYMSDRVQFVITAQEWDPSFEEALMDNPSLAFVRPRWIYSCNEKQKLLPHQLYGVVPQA
Sequence of XRCC1/LigIII complex, purified from insect cells (P49916 88-1009, chain 2 of 2): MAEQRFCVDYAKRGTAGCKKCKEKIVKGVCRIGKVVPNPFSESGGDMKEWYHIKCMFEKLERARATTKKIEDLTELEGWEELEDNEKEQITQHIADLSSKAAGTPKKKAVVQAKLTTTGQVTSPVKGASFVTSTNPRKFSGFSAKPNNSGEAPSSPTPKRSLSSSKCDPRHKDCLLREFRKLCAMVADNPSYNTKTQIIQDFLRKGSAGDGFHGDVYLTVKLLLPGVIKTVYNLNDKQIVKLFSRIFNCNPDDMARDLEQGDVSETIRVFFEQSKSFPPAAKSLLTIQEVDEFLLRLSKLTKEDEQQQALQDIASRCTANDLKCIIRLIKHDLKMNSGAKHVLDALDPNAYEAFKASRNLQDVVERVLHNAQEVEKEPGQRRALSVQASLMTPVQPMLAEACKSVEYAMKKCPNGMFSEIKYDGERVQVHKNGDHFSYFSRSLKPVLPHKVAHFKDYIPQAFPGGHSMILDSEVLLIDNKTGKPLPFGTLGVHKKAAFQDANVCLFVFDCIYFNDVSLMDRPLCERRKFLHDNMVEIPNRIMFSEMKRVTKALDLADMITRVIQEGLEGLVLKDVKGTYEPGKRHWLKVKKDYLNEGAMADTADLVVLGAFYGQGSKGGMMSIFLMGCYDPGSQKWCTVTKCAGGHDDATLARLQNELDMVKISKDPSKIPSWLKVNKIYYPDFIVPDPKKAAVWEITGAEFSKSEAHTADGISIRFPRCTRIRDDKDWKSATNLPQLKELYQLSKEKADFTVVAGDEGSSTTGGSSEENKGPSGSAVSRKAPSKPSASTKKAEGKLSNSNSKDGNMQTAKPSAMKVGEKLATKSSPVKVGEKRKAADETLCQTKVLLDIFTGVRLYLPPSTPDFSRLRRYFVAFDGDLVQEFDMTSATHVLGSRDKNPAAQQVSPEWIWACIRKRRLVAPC

In the test with Flag-FUS-R521H (human), “DNA Ligase IIIalpha (LigIII), endogenous (from UniProt P49916 43-1009) (enzyme)” showed a percent reduction of PLA association against WT FUS greater than 80%.

B1: GST-FUS (natural protein, human, UniProt P35637 1-526, looked up)
chain: MASNDYTQQATQSYGAYPTQPGQGYSQQSSQPYGQQSYSGYSQSTDTSGYGQSSYSSYGQSQNTGYGTQSTPQGYGSTGGYGSSQSSQSSYGQQSSYPGYGQQPAPSSTSGSYGSSSQSSSYGQPQSGSYSQQPSYGGQQQSYGQQQSYNPPQGYGQQNQYNSSSGGGGGGGGGGNYGQDQSSMSSGGGSGGGYGNQDQSGGGGSGGYGQQDRGGRGRGGSGGGGGGGGGGYNRSSGGYEPRGRGGGRGGRGGMGGSDRGGFNKFGGPRDQGSRHDSEQDNSDNNTIFVQGLGENVTIESVADYFKQIGIIKTNKKTGQPMINLYTDRETGKLKGEATVSFDDPPSAKAAIDWFDGKEFSGNPIKVSFATRRADFNRGGGNGRGGRGRGGPMGRGGYGGGGSGGGGRGGFPSGGGGGGGQQRAGDWKCPNPTCENMNFSWRNECNQCKAPKPDGPGGGPGGSHMGGNYGDDRRGGRGGYDRGGYRGRGGDRGGFRGGRGGGDRGGFGPGKMDSRGEHRQDRRERPY
notes: FUS in pGEX6P-1, plasmid purchased from Addgene; The FUS of the ligation assays is named only 'purified FUS'; also called purified FUS; recombinant FUS; source: E. coli BL21, purified (glutathione-Sepharose 4B)
B1: in test [1], the “catalytic efficiency of LigIII in the nick ligation reaction of XRCC1/LigIII with or without FUS” value was 4 fold and the “in vitro DNA nick ligation by XRCC1/LigIII complex (100 f.moles) with FUS 10-500 f.moles; fold change in ligated product” value is roughly 5 fold. The binding result in test [2] is reported as “binds”.
